Assay results from publication PMC3367564.

Key:
MBP-sAnk1(29-155) = MBP-sAnk1(29-155) (UniProt P16157); test: SPR
MBP-sAnk1(29-155) D111R = MBP-sAnk1(29-155) D111R (UniProt P16157); test: SPR
obscurin = obscurin (UniProt Q5VST9); settings: cited from earlier work

Substance | peak binding relative to wild type (MBP-sAnk1(29-155)) | ratio of binding to sAnk1-D111R over binding to wild type sAnk1 (MBP-sAnk1(29-155) D111R) | further results
GST-Obsc(6316-6436) E6327A (domain or fragment) | 40 % of control | – | –
GST-Obsc(6316-6436) E6329A (domain or fragment) | 40 % of control | – | –
GST-Obsc(6316-6436) K6337E (domain or fragment) | – | 1.7 | –
GST-Obsc(6316-6436) with the two N-terminal glutamates changed to alanines (E6327A, E6329A) (domain or fragment) | 10 % of control | – | –
small ankyrin 1 (from UniProt P16157) | – | – | Kd (obscurin): 130 nM

More lines, main results first:

peak binding relative to wild type (MBP-sAnk1(29-155)) | ratio of binding to sAnk1-D111R over binding to wild type sAnk1 (MBP-sAnk1(29-155) D111R) | Substance | further results
– | 1.7 | GST-Obsc(6316-6436) K6338A (domain or fragment) | –
– | 3.7 | GST-Obsc(6316-6436) K6338E (domain or fragment) | –
– | 1.7 | GST-Obsc(6316-6436), wild type (domain or fragment) | –
